Experiments:
[1] = molecular target: T1, c-Myc peptide [SEQ ID No. 4] (Homo sapiens, UniProt P01106); assay: Phosphopeptide binding assay, peptide-BSA coated IPR plate
T1 construct: phosphothreonine (T58) and phosphoserine (S62) (chemical modification); purchased New England Peptide, Fitchburg Mass; host or cells: chemical synthesis
Protocol: A phosphopeptide derived from the IkBa degradation motif (SEQ ID NO: 1) and a phosphopeptide derived from c-Myc (SEQ ID NO: 4) were chemically synthesized (New England Peptide, Fitchburg Mass.) with the following sequences respectively:
To prepare IPR plates for use in the assay, approximately 2.4 pmol BSA, 1.2 pmole IκBα-24pp peptide-BSA conjugate or 1.2 pmole of Myc-p58Tp62S peptide-BSA conjugate in 2.5 μl were deposited on the carbon working electrode surface in a single well of a 96-well plate. At this stage, the plates were dried then used or stored under desiccated condition. A few hours prior to usage, the plates were rehydrated and blocked with 3% BSA, in PBS.
Two βTRCP genes, βTRCP1 and βTRCP2, are present in the human genome on […], respectively. The coding sequence of these two genes shares over 90% identity and several full-length cDNAs of which are available as EST clones from Incyte (Palo Alto, Calif.) IMAGE #3491843 and 4237375. Also included were three other non specific EST clones as controls (Incyte, Palo alto, Calif.). […] These DNAs were used to produce the βTRCP protein and proteins encoded by the other DNAs as described in the Example 7. Proteins were transferred into wells of the peptide-coated and BSA-blocked IPR plates. […] The ECL signals were measured using an imaging plate reader (IPR).

EGFR = molecular target: T2, EGFR (Homo sapiens, UniProt P00533); assay: EGFR binding assay, bound EGFR detected by its tyrosine kinase activity towards pEY
T2 construct: autophosphorylated tyrosines (self-phosphorylated with ATP before use); purchased Sigma Chemical Co, MO
Protocol: Proteins were produced in an in vitro transcription and translation reaction using 40–100 ng of plasmid DNA. […] The unbound components of the reaction containing endogenous kinases were removed by three washes with TT-buffer (25 mM Tris-HCl buffer pH 7.4 and 0.004% Triton), two five minutes washings with high-salt wash buffer (25 mM Tris-HCl buffer pH 7.4, 0.004% Triton, 1M NaCl and 5 mM DTT) and 3 more washes with TT-buffer. […] The unbound EGFR was washed by 4 times washing with TT-buffer (25 mM Tris-HCl buffer pH 7.4 and 0.004% Triton). The amount of EGFR bound to the reticulocyte lysate expressed protein was determined by detecting the kinase activity of EGFR. A tyrosine kinase substrate, 5 nM pEY (poly Glu-Tyr, Sigma, MO) was added in a 50 μl reaction containing 5 mM MgCl2, 5 mM MnCl2, 100 μM ATP, 25 mM Tris-HCl buffer pH 7.4, 0.05 mM Na3VO4, 0.004% TritonX-100, 2 mM DTT and EDTA-free protease inhibitor (Roche Molecular Biochemicals). This mixture was incubated with shaking at room temperature for 1 or 12 hours to allow phosphorylation of the pEY substrate by the EGFR. Following this incubation 45 μl of this mixture was transferred to a SA—NPT IPR plate coated with biotinylated anti-phosphotyrosine antibody (PY20, Zymed labs, CA) followed by incubation for 30 minutes at room temperature to allow the binding of the phosphorylated pEY substrate to the PY20 coated NPT plate. Following this binding step 50 ng Sulfo-TAG labeled anti-phosphotyrosine in buffer containing 25 mM Tris-HCl buffer pH 7.4, 5 mM MgCl2, 0.05 mM Na3VO4, 0.004% TritonX-100, 2 mM DTT and 0.05% IgG was added followed by incubation at room temperature for 30 mm.
The unbound reagents were removed by one time washing with TT-buffer (25 mM Tris-HCl buffer pH 7.4 and 0.004% Triton), and the TAG label was detected in presence of 150 μl IPR assay buffer (0.4 mM Gly-Gly buffer, pH 7.8, 1 mM EDTA, 0.1 M TPA). The ECL signals were measured using an imaging plate reader.

[2] = molecular target: T3, pY1068 peptide (SEQ ID NO: 7) (Homo sapiens, UniProt P00533); assay: 96-well screen for phosphopeptide binding proteins, 7-spot IPR plates; conditions: two steps of normalization; top 9 clones
T3 construct: phosphotyrosine at Tyr1068 (chemical modification); purchased New England Peptide, Fitchburg Mass; host or cells: chemical synthesis
Protocol: (§1) A screen was conducted using 7-spot IPR plates. The 7 spot NPT IPR plates are described in more detail in copending Provisional Application No. 60/301,932 (entitled “Assay Plates, Reader Systems and Methods for Luminescence Test Measurements”, filed on Jun. 29, 2001, hereby incorporated by reference) and particularly in the description of Plate Type D in Example 6.1 (NPT IPR plate) and U.S. application Ser. Nos. 10/185,274 and 10/185,363, filed Jun. 28, 2002, each hereby incorporated by reference. These plates consist of a 96 wells with 7 zones (spots) for the immobilization of proteins or other reagents. Each spot was coated with BSA conjugated to either a single phosphopeptide or multiple phosphopeptides.
(§2) The plates were prepared essentially as described in example 12. The seven spots supported, respectively, the following BSA conjugates IkB, pY992, pY1068, pY1148, Myc, “A”, and “6-P”. “A” refers to a conjugate of BSA with multiple peptides: IkB, pY1148, Myc which were then coupled to BSA. “6-P” refers to a conjugate of BSA with the following multiple peptides: IkB, pY1148, pY992, pY1068, Smad3C.
(§3) For the assay, 4 ul from TnT reaction product described above were added to the coated plate containing 50 μl of binding buffer supplemented with 50 ng/well Ru-Streptavidin. The binding reaction was allowed to proceed at room temperature for 1 hour with constant shaking. […] The ECL signals were measured using an imaging plate reader (IPR). The raw data from the IPR reader was then normalized using two steps of normalization. The first round was based on the 50 lowest values for a given specific spot.

pY1148 (SEQ ID NO: 9) = molecular target: T4, pY1148 (SEQ ID NO: 9) (Homo sapiens, UniProt P00533); assay: as above; conditions: two steps of normalization; top 9 clones
T4 construct: phosphotyrosine at Tyr1148 (chemical modification); purchased New England Peptide, Fitchburg Mass; host or cells: chemical synthesis
Protocol: as §1, §2, §3

[3] = molecular target: T5, pY992 peptide (SEQ ID NO: 5) (Homo sapiens, UniProt P00533); assay: as above; conditions: two steps of normalization; top 9 clones
T5 construct: phosphotyrosine at Tyr992 (chemical modification); purchased New England Peptide, Fitchburg Mass; host or cells: chemical synthesis
Protocol: as §1, §2, §3

T1 sequence (P01106 with tags, fused parts or gaps limits assumed): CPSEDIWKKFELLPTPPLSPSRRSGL

Molecule | Average ECL signal, c-Myc peptide [SEQ ID No. 4] [1] | ECL signal (EGFR; +EGFR, reaction time 1 hr) | ECL signal (EGFR; +EGFR, reaction time 12 hr) | ECL signal (EGFR; no EGFR) | normalized ECL signal, pY1068 spot [2] | normalized ECL signal, pY1148 spot (pY1148 (SEQ ID NO: 9)) | normalized ECL signal, pY992 spot [3]
4237375: IMAGE clone protein: βTRCP2 (protein) MEPDSVIEDKTIELMCSVPRSLWLGCANLVESMCALSCLQSMPSVRCLQISNGTSSVIVSRKRPSEGNYQKEKDLCIKYFDQWSESDQVEFVEHLISRMCHYQHGHINSYLKPMLQRDFITALPEQGLDHIAENILSYLDARSLCAAELVCKEWQRVISEGMLWKKLIERMVRTDPLWKGLSERRGWDQYLFKNRPTDGPPNSFYRSLYPKIIQDIETIESNWRCGRHNLQRIQCRSENSKGVYCLQYDDEKIISGLRDNSIKIWDKTSLECLKVLTGHTGSVLCLQYDERVIVTGSSDSTVRVWDVNTGEVLNTLIHHNEAVLHLRFSNGLMVTCSKDRSIAVWDMASATDITLRRVLVGHRAAVNVVDFDDKYIVSASGDRTIKVWSTSTCEFVRTLNGHKRGIACLQYRDRLVVSGSSDNTIRLWDIECGACLRVLEGHEELVRCIRFDNKRIVSGAYDGKIKVWDLQAALDPRAPASTLCLRTLVEHSGRVFRLQFDEFQIISSSHDDTILIWDFLNVPPSAQNETRSPSRTYTYISR | 896 |  |  |  |  |  | 
4419252: IMAGE clone protein: PLCγ (protein) MAGAASPCANGCGPGAPSDAEVLHLCRSLEVGTVMTLFYSKKSQRPERKTFQVKLETRQITWSRGADKIEGAIDIREIKEIRPGKTSRDFDRYQEDPAFRPDQSHCFVILYGMEFRLKTLSLQATSEDEVNMWIKGLTWLMEDTLQAPTPLQIERWLRKQFYSVDRNREDRISAKDLKNMLSQVNYRVPNMRFLRERLTDLEQRSGDITYGQFAQLYRSLMYSAQKTMDLPFLEASTLRAGERPELCRVSLPEFQQFLLDYQGELWAVDRLQVQEFMLSFLRDPLREIEEPYFFLDEFVTFLFSKENSVWNSQLDAVCPDTMNNPLSHYWISSSHNTYLTGDQFSSESSLEAYARCLRMGCRCIELDCWDGPDGMPVIYHGHTLTTKIKFSDVLHTIKEHAFVASEYPVILSIEDHCSIAQQRNMAQYFKKVLGDTLLTKPVEISADGLPSPNQLKRKILIKHKKLAEGSAYEEVPTSMMYSENDISNSIKNGILYLEDPVNHEWYPHYFVLTSSKIYYSEETSSDQGNEDEEEPKEVSSSTELHSNEKWFHGKLGAGRDGRHIAERLLTEYCIETGAPDGSFLVRESETFVGDYTLSFWRNGKVQHCRIHSRQDAGTPKFFLTDNLVFDSLYDLITHYQQVPLRCNEFEMRLSEPVPQTNAHESKEWYHASLTRAQAEHMLMRVPRDGAFLVRKRNEPNSYAISFRAEGKIKHCRVQQEGQTVMLGNSEFDSLVDLISYYEKHPLYRKMKLRYPINEEALEKIGTAEPDYGALYEGRNPGFYVEANPMPTFKCAVKALFDYKAQREDELTFIKSAIIQNVEKQEGGWWRGDYGGKKQLWFPSNYVEEMVNPVALEPEREHLDENSPLGDLLRGVLDVPACQIAIRPEGKNNRLFVFSISMASVAHWSLDVAADSQEELQDWVKKIREVAQTADARLTEGKIMERRKKIALELSELVVYCRPVPFDEEKIGTERACYRDMSSFPETKAEKYVNKAKGKKFLQYNRLQLSRIYPKGQRLDSSNYDPLPMWICGSQLVALNFQTPDKPMQMNQALFMTGRHCGYVLQPSTMRDEAFDPFDKSSLRGLEPCAISIEVLGARHLPKNGRGIVCPFVEIEVAGAEYDSTKQKTEFVVDNGLNPVWPAKPFHFQISNPEFAFLRFVVYEEDMFSDQNFLAQATFPVKGLKTGYRAVPLKNNYSEDLELASLLIKIDIFPAKENGDLSPFSGTSLRERGSDASGQLFHGRAREGSFESRYQQPFEDFRISQEHLADHFDSRERRAPRRTRVNGDNRL |  | 17,966 | 39,767 | 1,695 | 55 | 4 | 10

From US7063946B2, “Methods, reagents, kits and apparatus for protein function analysis” (Meso Scale Technologies, LLC., priority 2001, dated 2006)
